{
  "source": "paper PMC7040160",
  "about": "“Indium-111-labeled CD166-targeted peptide as a potential nuclear imaging agent for detecting colorectal cancer stem-like cells in a xenograft mouse model” (EJNMMI Research, 2020)",
  "key": {"[1]": {"tested_on": "CD166^+HCT15 xenograft mice", "assay": "in vivo", "conditions": "mouse", "method": "(§1) CD166^+HCT15 cells were subcutaneously injected into the right hindlimb of mice for establishing CD166-expressed CRC xenograft mouse model. After tumor formation, the ^111In-DTPA, ^111In-DTPA-G18C, ^111In-DTPA-CD166tp-C, and ^111In-DTPA-CD166tp-G18C (148 MBq/kg/mouse) were intravenously injected into mice […]. After 2, 4, 24, and 48 h post-injection, mice were sacrificed and collected blood and organs including the brain, heart, lung, liver, spleen, kidneys, stomach, small intestine, colon, muscle, and tumor. The organ weight was measured. The radioactivity in blood and organs was determined by a 1470 WIZARD gamma counter (PerkinElmer). The percentage of injected dose per gram of tissue (%ID/g) was calculated."}, "[2]": {"assay": "in vivo", "conditions": "mouse, iv, 148 MBq/kg/mouse, total radioactivity", "method": "as §1"}, "[3]": {"tested_on": "CD166^+HCT15 xenograft mice", "conditions": "mouse, in vivo", "method": "The male BALB/c nude mice were subcutaneously inoculating CD166^+HCT15 cells (1 × 10^6 cells) for 2 weeks, and then the ^111In-DTPA, ^111In-DTPA-G18C, ^111In-DTPA-CD166tp-C, and ^111In-DTPA-CD166tp-G18C (740 MBq/kg/mouse) were intravenously injected into mice. The imaging of CD166 in mice at 2, 4, 24, and 48 h were detected by a nano single-photon emission computed tomography/computed tomography (nanoSPECT/CT; Mediso Medical Imaging Systems, Budapest, Hungary). For competitive study, the CD166^+HCT15-derived xenograft mice were pre-treated with CD166tp-G18C (0, 10, and 50 mg/kg) for 6 h. Every mouse then received 740 MBq/kg ^111In-DTPA-CD166tp-G18C via intravenous injection for 24 and 48 h. The competitive CD166 images were observed by a nanoSPECT/CT."}, "[4]": {"tested_on": "CD166^+HCT15 and CD166^−HCT15 cells", "assay": "Cell viability assay (CCK-8), cell resistance", "conditions": "1, 5 and 50 μM, 24 h; absorbance 450 nm; Fig. 3b; n ≥ 5"}, "[5]": {"tested_on": "CD166^+HCT15 cells", "assay": "CD166tp-G18C binding assay by immunofluorescence staining", "type": "cell-based, human", "conditions": "fixed, 20 μg/mL, 2 h, Fig. 5b", "method": "(§2) The CD166tp-G18C binding assay was determined by immunofluorescence staining in both CD166^−HCT15 and CD166^+HCT15 cells. Briefly, cells (1 × 10^4 cells) were seeded in 4-well Millicell EZ slides (Merck Millipore, Germany) with culture medium at 37 °C and 5% CO2 for 16 h. Cells were fixed using 4% paraformaldehyde for 30 min at 37 °C. The fixed-cells were then incubated in the SuperBlock Blocking Buffers (Thermo Fisher Scientific, USA) for 30 min. Cells were incubated with CD166tp-G18C-FITC (20 μg/mL) for 2 h. DAPI was used to stain the cell nuclei at a concentration of 0.2 μg DAPI/mL PBS for 10 min. The images were captured by a fluorescence microscope (BX53, Olympus, Japan) coupled to a CCD camera. Digital images were analyzed by an Image-Pro Plus software (Media Cybernetics, USA)."}, "[6]": {"tested_on": "CD166^−HCT15 cells", "assay": "CD166tp-G18C binding assay by immunofluorescence staining", "type": "cell-based, human", "conditions": "fixed, 20 μg/mL, 2 h, Fig. 5b", "method": "as §2"}, "[7]": {"molecular_target": "T1, CD166 protein (Homo sapiens, UniProt Q13740)", "T1 sequence (Q13740 28-583)": "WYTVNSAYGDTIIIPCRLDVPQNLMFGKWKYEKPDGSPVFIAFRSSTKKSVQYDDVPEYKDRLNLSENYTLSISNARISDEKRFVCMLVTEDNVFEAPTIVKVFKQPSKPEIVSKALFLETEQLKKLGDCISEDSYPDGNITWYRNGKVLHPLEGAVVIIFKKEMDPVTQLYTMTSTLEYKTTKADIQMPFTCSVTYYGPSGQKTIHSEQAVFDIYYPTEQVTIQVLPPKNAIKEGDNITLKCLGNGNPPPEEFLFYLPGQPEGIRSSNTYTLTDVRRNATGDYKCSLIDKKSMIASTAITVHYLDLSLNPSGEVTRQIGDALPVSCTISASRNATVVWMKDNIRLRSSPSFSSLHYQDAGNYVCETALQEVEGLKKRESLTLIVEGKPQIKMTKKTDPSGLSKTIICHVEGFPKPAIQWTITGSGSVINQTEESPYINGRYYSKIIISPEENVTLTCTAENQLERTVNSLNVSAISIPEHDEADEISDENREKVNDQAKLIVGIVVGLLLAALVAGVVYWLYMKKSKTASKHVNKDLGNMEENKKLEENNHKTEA", "assay": "CD166tp-G18C and CD166 protein interaction assay (immunoprecipitation with CD166 antibody)", "type": "binding", "set-up": "endogenous in cells; host or cells: HCT15 cells (sorted CD166+ and CD166- populations)", "conditions": "Fig. 5c", "method": "HCT15 cells (1 × 10^6 cells) were incubated with 20 μg/mL CD166tp-G18C-FITC in the presence or absence of 20 μg/mL CD166tp-G18C at 4 °C for 1 h. After treating immunoblotting lysis buffer with protease inhibitors cocktail (Hycell International, Taipei, Taiwan), the mixture solution was centrifuged at 14,000 rpm (4 °C) for 10 min. The supernatant was treated with or without 2 μg/mL biotinylated-CD166 antibody (Novus Biologicals, Littleton, CO, USA)-conjugated streptavidin agarose beads (Sigma-Aldrich) at 4 °C overnight. In the competitive group, cells were pre-treated with CD166tp-G18C (20 μg/mL) for 1 h at 4 °C. The fluorescence of immunoprecipitates was detected by an ELISA reader (Perkin Elmer)."}, "[8]": {"tested_on": "CD166^+HCT15 cells", "assay": "CD166tp-G18C binding assay by flow cytometry", "type": "cell-based, human", "conditions": "Fig. 5a", "method": "For CD166 detection on the cellular surface, the optimized density (1 × 10^6 cell) of CD166^+HCT15 and CD166^−HCT15 cells were added with 1 mL PBS with 20 μg IgG-FITC and FITC-conjugated CD166 antibody (CD166ab-FITC) for 1 h. For the CD166tp-G18C binding assay, CD166^+HCT15 and CD166^−HCT15 cells were added with 1 mL PBS with 20 μg CD166tp-G18C-FITC and G18C-FITC for 1 h. In competitive group, CD166^+HCT15 cells were pre-treated with CD166tp-G18C (20 μg/mL) for 1 h and then added 20 μg/mL CD166tp-G18C-FITC for 1 h. After PBS washing, cells were collected for flow cytometric analysis using a FACSCalibur Flow Cytometer (BD Bioscience, San Diego, CA, USA)."}},
  "note": "Residues, ends and D or L forms follow the SMILES beside them. No end group written: not given here. *: point of attachment. X1 = O=C(O)CN(CCN(CCN(CC(=O)O)CC(=O)O)C(CCCCNC(=O)CCCN1C(=O)CC(*)C1=O)C(=O)O)CC(=O)O",
  "data": [
    {"compound": "CC(C)C[C@H](NC(=O)[C@H](CC(N)=O)NC(=O)[C@H](CO)NC(=O)[C@H](CC(N)=O)NC(=O)CNC(=O)[C@H](CCC(=O)O)NC(=O)[C@H](CO)NC(=O)[C@@H](N)CC(=O)O)C(=O)N[C@@H](CS)C(=O)N[C@@H](CO)C(=O)N[C@@H](CCC(N)=O)C(=O)N[C@@H](CO)C(=O)NCC(=O)NCC(=O)NCC(=O)NCC(=O)NCC(=O)NCC(=O)NCC(=O)NCC(=O)NCC(=O)NCC(=O)NCC(=O)NCC(=O)NCC(=O)NCC(=O)NCC(=O)NCC(=O)NCC(=O)NCC(=O)N[C@@H](CSC1CC(=O)N(CCCC(=O)NCCCCC(C(=O)O)N(CCN(CC(=O)O)CC(=O)O)CCN(CC(=O)O)CC(=O)O)C1=O)C(=O)O", "note": "(some centres unmarked) [^111In-DTPA-CD166tp-G18C, metal not drawn] (H-DSEGNSNLCSQSGGGGGGGGGGGGGGGGGGC(X1)-OH; N-terminus and C-terminus assumed)", "values": [
      {"measurement": "ratio of tumor-to-blood (T/B)", "setting": "[1]", "value": "remarkably increased"},
      {"measurement": "ratio of tumor-to-muscle (T/M)", "setting": "[1]", "value": "remarkably increased"},
      {"measurement": "tumor-to-blood ratios", "setting": "[1]", "value": "5.94 ± 0.51"},
      {"measurement": "tissue to tissue ratio at 48 h", "setting": "[2]", "value": "48.9 ± 5.03"},
      {"measurement": "tissue uptake at 4 h", "setting": "[2]", "value": "10.1 ± 1.26", "unit": "%ID/g"},
      {"measurement": "tissue uptake at 24 h", "setting": "[2]", "value": "11.1 ± 2.2", "unit": "%ID/g"},
      {"measurement": "difference of counts between background and tumor area (nanoSPECT/CT)", "setting": "[3]", "value": "about 8 times"}
    ]},
    {"compound": "COc1cccc2c1C(=O)c1c(O)c3c(c(O)c1C2=O)C[C@@](O)(C(=O)CO)C[C@@H]3O[C@H]1C[C@H](N)[C@H](O)[C@H](C)O1", "note": "[doxorubicin]", "values": [
      {"measurement": "resistance of CD166^+HCT15 cells as compared to CD166^−HCT15 cells (cell viability, CCK-8)", "setting": "[4]", "value": "significant resistance"}
    ]},
    {"compound": "CD166tp-G18C-FITC: FITC-labeled CD166tp-G18C (DSEGNSNLCSQSGGGGGGGGGGGGGGGGGGC; cysteine pairing not given here; also: FITC label, site not given here)", "values": [
      {"measurement": "binding ability by immunofluorescence", "setting": "[5]", "value": "increased"},
      {"measurement": "binding ability by immunofluorescence", "setting": "[6]", "value": "but not in CD166^−HCT15 cells"},
      {"measurement": "binding via CD166 protein (fluorescence of CD166 antibody immunoprecipitates)", "setting": "[7]; CD166^+HCT15 cells, 20 μg/mL, 1 h, 4 °C, biotinylated-CD166 antibody 2 μg/mL, n ≥ 3", "value": "could bind"},
      {"measurement": "fluorescence of CD166tp-G18C-FITC on cells (flow cytometry)", "setting": "[8]; CD166^+HCT15 cells, 20 μg/mL, 1 h, n ≥ 3", "value": "significantly increased"}
    ]},
    {"compound": "DSEGNSNLCSQSGGGGGGGGGGGGGGGGGGC [CD166tp-G18C, Glycine18-Cysteine-linked CD166-targeted peptide]", "values": [
      {"measurement": "competition: effect of pretreatment on CD166tp-G18C-FITC binding (immunoprecipitation assay)", "setting": "[7]; pre-treated with 20 μg/mL for 1 h at 4 °C", "value": "could be inhibited"},
      {"measurement": "competition: effect of pretreatment on binding efficiency of CD166tp-G18C-FITC (flow cytometry)", "setting": "[8]; CD166^+HCT15 cells pre-treated with 20 μg/mL for 1 h, then 20 μg/mL CD166tp-G18C-FITC 1 h", "value": "markedly decreased the binding efficiency of CD166tp-G18C-FITC"}
    ]}
  ]
}
